The values below are quoted from earlier work in publication PMC10170156.

This data set deals with EGFR (Homo sapiens) (UniProt P00533).

The term Kd denotes the concentration at which binding is half-saturated. Turning to EGF (from UniProt P01133), the Kd is 4 nM.
